Data as given in CN116284426A (SUNSHINE GUOJIAN PHARMACEUTICAL SHANGHAI CO LTD, dated 2023).
Each block holds one binder with its values, some of them ahead of it.

What was measured:
CD3ε-ECD-his [1] = biological target: T1, CD3ε-ECD-his (UniProt P07766 23-126); assay: ELISA, CD3ε-ECD-his coated at 1 ug/mL (Table 19)
T1 construct: extracellular domain; also called CD3ε蛋白

[2] = biological target: T2, GUCY2C-Fc蛋白 (human GUCY2C extracellular region fused to human IgG1 Fc) (human, UniProt P25092 24-430); assay: ELISA, GUCY2C-Fc coated, anti-human IgG Fab HRP (Table 12)
T2 construct: extracellular domain; Made in HEK-293F with an unspecified N-terminal signal peptide; also called 人GUCY2C-Fc蛋白; not shown: human IgG1 Fc at the C-terminus in place of the 6xHis tag
T2 sequence (P25092 24-430 limits assumed): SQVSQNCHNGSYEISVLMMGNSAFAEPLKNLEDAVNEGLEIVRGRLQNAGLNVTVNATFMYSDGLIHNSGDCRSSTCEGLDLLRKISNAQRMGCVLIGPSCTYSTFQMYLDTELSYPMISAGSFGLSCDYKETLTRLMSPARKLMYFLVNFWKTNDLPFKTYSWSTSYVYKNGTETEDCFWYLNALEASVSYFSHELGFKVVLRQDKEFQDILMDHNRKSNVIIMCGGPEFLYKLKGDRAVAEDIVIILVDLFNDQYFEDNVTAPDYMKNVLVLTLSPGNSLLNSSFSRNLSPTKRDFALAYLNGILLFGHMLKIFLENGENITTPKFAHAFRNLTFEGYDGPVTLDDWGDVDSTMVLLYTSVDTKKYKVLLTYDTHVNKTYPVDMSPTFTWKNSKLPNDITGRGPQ

[3] = biological target: T3, GUCY2C-His蛋白 (human GUCY2C extracellular region with C-terminal 6xHis) (human, UniProt P25092 24-430); assay: ELISA, GUCY2C-His coated, anti-human IgG Fab HRP (Table 10)
T3 construct: extracellular domain; Made in HEK-293F with an unspecified N-terminal signal peptide; also called 人GUCY2C-His蛋白
T3 sequence (P25092 other isoform, or with tags, fused parts or gaps): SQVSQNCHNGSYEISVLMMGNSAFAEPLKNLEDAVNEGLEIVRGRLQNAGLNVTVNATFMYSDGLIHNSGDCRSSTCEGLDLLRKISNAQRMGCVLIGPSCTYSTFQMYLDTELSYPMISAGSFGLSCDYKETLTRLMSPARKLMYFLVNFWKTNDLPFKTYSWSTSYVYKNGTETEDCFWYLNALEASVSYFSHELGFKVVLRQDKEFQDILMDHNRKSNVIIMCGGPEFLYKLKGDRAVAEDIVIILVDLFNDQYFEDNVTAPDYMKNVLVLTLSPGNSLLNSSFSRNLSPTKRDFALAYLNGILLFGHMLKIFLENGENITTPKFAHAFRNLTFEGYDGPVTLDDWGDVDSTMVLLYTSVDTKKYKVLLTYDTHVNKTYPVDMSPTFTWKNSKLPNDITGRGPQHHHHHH

CD3ε-ECD-his [4] = biological target: T1, CD3ε-ECD-his; assay: ELISA, CD3ε-ECD-his coated at 1 ug/mL, anti-human IgG Fab HRP (Table 14)
CD3ε-ECD-his [5] = biological target: T1, CD3ε-ECD-his; assay: ELISA, CD3ε-ECD-his coated; reference SP34
[6] = biological target: T2, GUCY2C-Fc蛋白 (human GUCY2C extracellular …); assay: ELISA, GUCY2C-Fc coated, anti-human IgG Fab HRP (Table 18)
[7] = biological target: T3, GUCY2C-His蛋白 (human GUCY2C …); assay: ELISA, GUCY2C-His coated, anti-human IgG Fab HRP (Table 17)

T1 sequence (P07766 other isoform, or with tags, fused parts or gaps): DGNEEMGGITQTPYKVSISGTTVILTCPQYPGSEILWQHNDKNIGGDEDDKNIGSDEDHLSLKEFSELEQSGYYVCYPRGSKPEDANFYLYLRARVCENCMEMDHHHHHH

fold weaker affinity than SP34 (CD3ε-ECD-his [5]): ~10 fold
EC50 (CD3ε-ECD-his [1]): 2.37 nM
EC50 [6]: 0.752 nM
EC50 [7]: 0.405 nM
B3: SP4VHL-32H2-KIH (bispecific antibody)
chain 1: not shown
chain 2: EVQLVESGGGLVKPGGSLRLSCAASGFSFRTYAMSWVRQAPGKSLEWVATISSGSSYIYYPDSVKGRFTVSRDNAKNSLYLQMNSLRAEDTAVYYCTCYRMETFEYWGQGTLVTVSSASTKGPSVFPLAPSSKSTSGGTAALGCLVKDYFPEPVTVSWNSGALTSGVHTFPAVLQSSGLYSLSSVVTVPSSSLGTQTYICNVNHKPSNTKVDKKVEPKSCDKTHTCPPCPAPELLGGPSVFLFPPKPKDTLMISRTPEVTCVVVDVSHEDPEVKFNWYVDGVEVHNAKTKPREEQYNSTYRVVSVLTVLHQDWLNGKEYKCKVSNKALPAPIEKTISKAKGQPREPQVYTLPPCREEMTKNQVSLSCAVKGFYPSDIAVEWESNGQPENNYKTTPPVLDSDGSFFLVSKLTVDKSRWQQGNVFSCSVMHEALHNHYTQKSLSLSPGK
chain 3: DVVMTQSPLSLPVTLGQPASISCRSSQSLVYNNGNTYLHWYQQRPGQSPRLLIYKVSNRFSGVPDRFSGSGSGTDFTLKISRVEAEDVGVYFCSQSTHVPLTFGQGTKVEIKRTVAAPSVFIFPPSDEQLKSGTASVVCLLNNFYPREAKVQWKVDNALQSGNSQESVTEQDSKDSTYSLSSTLTLSKADYEKHKVYACEVTHQGLSSPVTKSFNRGEC

fold weaker affinity than SP34 (CD3ε-ECD-his [5]): ~10 fold
EC50 (CD3ε-ECD-his [1]): 4.02 nM
EC50 [6]: 1.08 nM
EC50 [7]: 0.733 nM
B4: SP4VHL-32H2-hik (bispecific antibody)
chain 1: EVQLVESGGGLVQPGGSLRLSCAASGFTFNTYAMNWVRQAPGKGLEWVARIRSKYNNYATYYADSVKDRFTISRDDSKNTLYLQMNSLRAEDTAVYYCVRHGNFGNSYVSWFAYWGQGTLVTVSSGGGGSGGGGSGGGGSGGGGSQAVVTQEPSLTVSPGGTVTLTCRSSTGAVTTSNYANWVQQKPGQAPRGLIGGTNKRAPGVPARFSGSLLGGKAALTLSGAQPEDEAEYYCALWYSNLWVFGQGTKVEIKGGGGSGGGGSGGGGSEVQLVESGGGLVKPGGSLRLSCAASGFSFRTYAMSWVRQAPGKSLEWVATISSGSSYIYYPDSVKGRFTVSRDNAKNSLYLQMNSLRAEDTAVYYCTCYRMETFEYWGQGTLVTVSSASTKGPSVFPLAPSSKSTSGGTAALGCLVKDYFPEPVTVSWNSGALTSGVHTFPAVLQSSGLYSLSSVVTVPSSSLGTQTYICNVNHKPSNTKVDKKVEPKSCDKTHTCPPCPAPELLGGPSVFLFPPKPKDTLMISRTPEVTCVVVDVSHEDPEVKFNWYVDGVEVHNAKTKPREEQYNSTYRVVSVLTVLHQDWLNGKEYKCKVSNKALPAPIEKTISKAKGQPREPQVYTLPPCREEMTKNQVSLSCAVKGFYPSDIAVEWESNGQPENNYKTTPPVLDSDGSFFLVSKLTVDKSRWQQGNVFSCSVMHEALHNHYTQKSLSLSPGK
chain 2: not shown
chain 3: B3 chain 3

The remaining lines, values behind:

B1: SP34 (humanized anti-CD3 monoclonal antibody) (antibody, human IgG1, kappa, V domains shown)
VH: EVQLVESGGGLVQPGGSLRLSCAASGFTFNTYAMNWVRQAPGKGLEWVARIRSKYNNYATYYADSVKDRFTISRDDSKNTLYLQMNSLRAEDTAVYYCVRHGNFGNSYVSWFAYWGQGTLVTVSS
VL: QAVVTQEPSLTVSPGGTVTLTCRSSTGAVTTSNYANWVQQKPGQAPRGLIGGTNKRAPGVPARFSGSLLGGKAALTLSGAQPEDEAEYYCALWYSNLWVFGQGTKVEIKR
notes: Full-length humanized IgG1/kappa made in HEK293F and purified on Protein A; also called SP34-HC/SP34-LC
EC50 (CD3ε-ECD-his [1]): 0.154 nM

B2: 32H2-SP4VHL (bispecific antibody, human IgG1, kappa)
heavy: not shown
light: B3 chain 3
notes: also called 结构1
EC50 [2]: 0.29 nM
EC50 [3]: 0.26 nM
EC50 (CD3ε-ECD-his [4]): 0.3 nM

B5: SP4VHL-32H2-L (bispecific antibody, human IgG1, kappa)
heavy: not shown
light: EVQLVESGGGLVQPGGSLRLSCAASGFTFNTYAMNWVRQAPGKGLEWVARIRSKYNNYATYYADSVKDRFTISRDDSKNTLYLQMNSLRAEDTAVYYCVRHGNFGNSYVSWFAYWGQGTLVTVSSGGGGSGGGGSGGGGSGGGGSQAVVTQEPSLTVSPGGTVTLTCRSSTGAVTTSNYANWVQQKPGQAPRGLIGGTNKRAPGVPARFSGSLLGGKAALTLSGAQPEDEAEYYCALWYSNLWVFGQGTKVEIKGGGGSGGGGSGGGGSDVVMTQSPLSLPVTLGQPASISCRSSQSLVYNNGNTYLHWYQQRPGQSPRLLIYKVSNRFSGVPDRFSGSGSGTDFTLKISRVEAEDVGVYFCSQSTHVPLTFGQGTKVEIKRTVAAPSVFIFPPSDEQLKSGTASVVCLLNNFYPREAKVQWKVDNALQSGNSQESVTEQDSKDSTYSLSSTLTLSKADYEKHKVYACEVTHQGLSSPVTKSFNRGEC
notes: also called 结构18
EC50 [2]: 0.78 nM
EC50 [3]: 1.21 nM
EC50 (CD3ε-ECD-his [4]): 1.16 nM
